This data set concerns the target T1, PamR (YdcH) (Bacillus subtilis 168) (UniProt P96625).
T1 sequence: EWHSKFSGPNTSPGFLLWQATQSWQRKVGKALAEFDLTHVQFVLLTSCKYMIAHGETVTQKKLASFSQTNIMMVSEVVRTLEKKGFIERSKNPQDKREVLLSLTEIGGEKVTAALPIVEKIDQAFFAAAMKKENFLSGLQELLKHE
Briefly: EMSA. The note with it: 20 mM NaPO4 pH 7, 50 mM NaCl, 5 mM MgCl2, 10% glycerol, 0.1 ug/ul salmon sperm DNA, 10 min at room temperature; 4% native acrylamide gel. (Mobility shift assays separate free from complexed probe on a gel.)

For the sequence “AATGTTCCTTCCGTTCCATTTTGAAATTGTCCTTTCAAAGAATCTGATGCAATACCCGTCTCCCATTGATCCATTGTTTCTGTTTCCTGATAACAGTTCCAGGTTTTCCCACATCCACATCAGCTATCGCTGTGTATTCATAATTCCACATCCCATAAGCTCCCAGAATGATAAGTTCACTTATTAATTATAATAAGCGCACTTATTAATAGTCAACCGCAAAAAAAAGAAGCCGGATGTCCAGCTTCTTTTTCTGGTTTTTTAGGACAGCTGTCCGAGAATATAGGTCAGGT (double strand) [PydcF wt 293 bp]”, the binding result is “binds”. On to “ACCTGACCTATATTCTCGGACAGCTGTCCTAAAAAACCAGAAAAAGAAGCTGGACATCCGGCTTCTTTTTTTTGCGGTTGACTATATTATTCTGCGCTTATTATAATTAATAAGTGAACTTATCATTCTGGGAGCTTATGGGATGTGGAATTATGAATACACAGCGATAGCTGATGTGGATGTGGGAAAACCTGGAACTGTTATCAGGAAACAGAAACAATGGATCAATGGGAGACGGGTATTGCATCAGATTCTTTGAAAGGACAATTTCAAAATGGAACGGAAGGAACATT (double strand) [PydcF IR1* mutant]”, for which the binding entry is given as “binds more weakly”.

These data come from publication PMC5730154.
